{
  "source": "paper PMC9274624",
  "key": {"[1]": {"molecular_target": "bovine ACE2 extracellular domain (residues 1-740) fused with the Fc domain of mouse IgG (bovine) (UniProt Q58DD0)", "sequence (Q58DD0 18-740)": "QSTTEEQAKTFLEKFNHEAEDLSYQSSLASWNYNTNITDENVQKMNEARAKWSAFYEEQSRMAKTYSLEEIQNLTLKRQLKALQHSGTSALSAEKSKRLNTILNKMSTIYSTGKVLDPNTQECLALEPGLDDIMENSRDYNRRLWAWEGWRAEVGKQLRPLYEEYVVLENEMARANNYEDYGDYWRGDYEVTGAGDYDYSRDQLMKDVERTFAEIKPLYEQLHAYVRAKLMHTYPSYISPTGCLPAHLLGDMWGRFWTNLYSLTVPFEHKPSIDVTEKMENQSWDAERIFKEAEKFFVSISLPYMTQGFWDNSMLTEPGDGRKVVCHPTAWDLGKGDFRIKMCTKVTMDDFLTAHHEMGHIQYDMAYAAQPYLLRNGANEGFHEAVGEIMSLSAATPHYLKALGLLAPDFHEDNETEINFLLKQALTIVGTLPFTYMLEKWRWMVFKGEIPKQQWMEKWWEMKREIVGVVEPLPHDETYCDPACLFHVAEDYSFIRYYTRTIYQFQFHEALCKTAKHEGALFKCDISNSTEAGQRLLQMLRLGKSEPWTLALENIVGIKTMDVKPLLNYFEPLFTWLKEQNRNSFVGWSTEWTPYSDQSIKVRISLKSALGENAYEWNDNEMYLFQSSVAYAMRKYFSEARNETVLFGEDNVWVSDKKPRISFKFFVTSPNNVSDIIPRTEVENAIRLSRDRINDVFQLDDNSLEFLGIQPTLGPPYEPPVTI", "assay": "SPR"}, "[2]": {"molecular_target": "cat ACE2 extracellular domain (residues 1-740) fused with the Fc domain of mouse IgG (cat) (UniProt Q56H28)", "sequence (Q56H28 18-740)": "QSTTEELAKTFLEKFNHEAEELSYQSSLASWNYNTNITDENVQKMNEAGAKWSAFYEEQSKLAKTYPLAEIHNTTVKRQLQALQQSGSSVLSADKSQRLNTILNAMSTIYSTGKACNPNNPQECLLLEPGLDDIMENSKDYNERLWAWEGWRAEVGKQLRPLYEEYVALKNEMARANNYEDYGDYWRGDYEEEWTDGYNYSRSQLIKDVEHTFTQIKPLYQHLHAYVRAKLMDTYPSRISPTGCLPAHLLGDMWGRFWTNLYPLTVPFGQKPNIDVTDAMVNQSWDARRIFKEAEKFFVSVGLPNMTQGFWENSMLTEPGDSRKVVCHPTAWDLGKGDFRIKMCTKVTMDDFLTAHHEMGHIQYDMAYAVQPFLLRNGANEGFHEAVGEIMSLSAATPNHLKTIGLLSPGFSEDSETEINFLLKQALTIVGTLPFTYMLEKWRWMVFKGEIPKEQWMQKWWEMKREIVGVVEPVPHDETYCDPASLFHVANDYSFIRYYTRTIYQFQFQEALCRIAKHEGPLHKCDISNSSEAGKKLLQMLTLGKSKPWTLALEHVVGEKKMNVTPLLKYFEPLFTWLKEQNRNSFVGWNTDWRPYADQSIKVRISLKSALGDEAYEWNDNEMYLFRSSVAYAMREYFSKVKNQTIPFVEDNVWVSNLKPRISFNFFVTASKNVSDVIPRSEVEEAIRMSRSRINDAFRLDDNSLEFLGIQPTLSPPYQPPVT", "assay": "SPR"}},
  "note": "pKd: −log10 of the molar value.",
  "data": [
    {"substance": "SARS-CoV-2 Delta RBD (residues 319-541) (from UniProt P0DTC2 319-541) (domain or fragment)", "values": [
      {"measurement": "pKd", "setting": "[1]", "value": 7.15},
      {"measurement": "pKd", "setting": "[2]", "value": 7.27}
    ]}
  ]
}
